Measurements published in a protein production outcome set (Wang et al. 2014).

Assay: label from the status in PepcDB records

Sequence: MHNLANLYRTGWPGGVEKDTQKALDLYQKMIDLDVPQGFYDMGAMIGNRAGVKNPATDGLTFLDKAASLGNPPALTELGKFYIYVAKKKDLGLAYTHCAASQGYAPASYELGAYYKIVEHNFPKALVYYQVSVSQGGKSAAFFLSRVFGSETPPASAMWYAPDEKLREAYYSIYKKLEADPLEHHHHHH
- protein production: failed

Sequence: MKTMRKILEIDEERCNGCGLCVLDCAEGAIAIVDGKAKIVSDSFCDGLGACIGSCPQDALHIIEREAVPFDEEAAMEHVRSQGGTPEANHGHGHGAGTPHRHGQSAEHGGHGRIPGHGGCPGAAMRRFDSAESPAFAVAEGTVKGPGHWPLKIRLVPPTAPFLKGADVLVAADCAAAASPIFHSHFAAGKVVLIGCPKFDDTEAYAERLADILRVSGIASLTVLRMEVPCCRGLSAAAEKARVLSGTSLVLKEVIMTCAGGPAAPAPLSSLLEHHHHHH
- protein production: not failed

Sequence: MSNDQSAMNELHWLIDMVQTIEVGLVVLDRDYNIQLWNGFMENHSGVSPNSIKGQNLFSRFPDLPATWLKQKMESVFMLKNRAFISWEQRPYVFQFKNYRPITGRADFMYQNVTLLPLASLTGKITHISVIVYDVTDIAVNKLQLKAANEQLERLSQTDGLTQLHNRRHWQQCLEHEYDLYARYSGIASLVMIDIDHFKNINDTYGHLAGDKVIQHIAHILSHSLRETDCAGRYGGEEFAVVMPSTCGADALNFTERLREKIASSTVVYEGLKIKVTVSLGVCELGKHISSSSSWISCSDKALYEAKQKGRNCTVLHCAPTSAE
- protein production: failed

Sequence: GSPDPEIFRQRFRQFGYQDSPGPREAVSQLRELCRLWLRPETHTKEQILELVVLEQFVAILPKELQTWVRDHHPENGEEAVTVLEDLESELDD
- protein production: not failed

Sequence: MNGIHDVGGMDGFGKVMYVKEEEDIYFTHDWERLALGLVAGCMAQGLGMKAFDEFRIGIELMRPVDYLTSSYYGHWIATVAYNLVDTGVLDEKELDERTEVFSKKPDTKIPRREDPALVKLVEKALNDGLSPLREISASPRFKVGERIKTKNIHPTGHTRFPRYARDKYGVIDEVYGAHVFPDDAAHRKGENPQYLYRVRFEAEELWGYKQKDSVYIDLWESYMEPVSH
- protein production: not failed

Sequence: KRASSKWLVCIGTSPSSAKLIRWTARTAEAFRAPWTALYIENEENDYMTKAEKKCLRETMELAERLGAEIVTLAGHDIAETVAEYARLTGVTNIVVGKSRRRMGLRSLFEEDFEDRLITHLDNVDMHIIP
- protein production: failed

Sequence: MDKNNNNLRLILAIALSFLFIALYSYFFQKPNKTTTQTTKQETTNNHTATSPNAPNAQHFSTTQTTPQENLLSTISFEHARIEIDSLGRIKQVYLKDKKYLTPKQKGFLEHVGHLFSSKENAQPPLKELPLLAADKLKPLEVRFLDPTLNNKAFNTPYSASKTTLGPNEQLVLTQDLGTLSIIKTLTFYDDLHYDLKIAFKSPNNLIPSYVITNGYRPVADLDSYTFSGVLLENSDKKIEKIEDKDAKEIKRFSNTLFLSSVDRYFTTLLFTKDPQGFEALIDSEIGTKNPLGFISLKNEANLHGYIGPKDYRSLKAISPMLTDVIEYGLITFFAKGVFVLLDYLYQFVGNWGWAIILLTIIVRIILYPLSYKGMVSMQKLKELAPKMKELQEKYKGEPQKLQAHMMQLYKKHGANPLGGCLPLILQIPVFFAIYRVLYNAVELKSSEWILWIHDLSIMDPYFILPLLMGASMYWHQSVTPNTMTDPMQAKIFKLLPLLFTIFLITFPAGLVLYWTTNNILSVLQQLIINKVLENKKRMHAQNKKEH
- protein production: failed

Sequence: MPSLCKLNPCIQTHKEVIMDNLITQLLFSASITGPICVMLLLGVLLKRIHLINDNFIEVASKLVFQVTLPAMLFLSIVNAKHDFSSSSHLIIYGLIANFVFFLFTIYSTRFAFKNKQNHGVIIQGGFRANTAIIALAYVANAYGNTGVALAAIYVASTTILYNIQAVIALTPKNENNKKQAVGIIIKTLTKNPLIISIVLGIICSLLSIPVPGMLSQAGQYFANMTLPLALLCAGGSLNLHSMKEESAATWFATSYKLILSPLFITSGGILVGFRGLELGLIFFMSAAPTAAASYVMARAMGGNAILAANIIAQTTVASLFTCTLGIFVLSSFNLI
- protein production: failed

Sequence: MNREEVLKQLQSIFRDILKKDNVCIDESSTSKDVDGWDSLTHMQIIAQIEKHFGVRFNFREVIKFKNVGDLCSALLTKMELEHHHHHH
- protein production: not failed

Sequence: SASKRWSPPRGIHFTVEEGDLGFTLRGNTPVQVHFLDPHCSASLAGAKEGDYIVSIQGVDCKWLTVSEVMKLLKSFGGEEVEMKVVSLLDSTSSMHNK
- protein production: not failed

Sequence: MSSATGRWRESPPTAVKNEEDNGRCPRELRVQSEAVLAGRYRLEERLGRGGMGEVWRAFDPHLEREVAVKLILSGDNDGVLIRRFQREARISANIQHPNITAVHDFGHHEGQLFLVMELLRGRDLGAVLADHPQGMPLDLVVSVAVQAADALRAAHTHRVVHRDLKPGNLFLLDTGHVKVCDFGIAHIADATSQLTAVGTALGTPAFMPPEQWKGEEVDSRSDVYALGGVMHTMLTGRIPFTGPLPALLAQHLTQDPPPIREFRPDVPLELADLVARMMAKDPAARPDSHELGELIYRAAAPEASGSPAFFSPQIAPQALPTAPPTAAPVPPQPSHATGYAAPSQWMPAAPQPHPTAHPPAEGDPQTMFTLGLRHREQGDIAGAESWYRKAAEAGHLDSMFNLALLSRERGNLVEAESWYRRAAEVGDVDAMVNLGDLLKERGESAEAELWHRRAAEAGHIASMHTLGNLLYSKGDTAEAETWWRRAAEAGNIRAMGVLGNLLEQRGDTFGAEQWYRRAAEAGNLDAMVNLGVLLENRHDTFGAEQWYRRAADAGDIDAMVNLGNLLHGRGDMGSAQYWWQRAAQTGNTRALNHLNQMG
- protein production: failed

Sequence: MPNKVKKRHLLDYSIFIPYLILSIVGLIMVYSSTSALQVMKGFSPTSFVINQVAFWVVGLVAMFFIYKMKTSVFQNRSFIMFAIAVITVMVLAVRIPGIGKEINGARGWIEIGGFSMQPAEYLKIMVVWYLSYILARRQKTINGGMDQFKQAAGRPLMLVFVLIALVAIQPDFGNAAILTLITIVMVLASGINYMYTYLVGGLGILGSITAIQLLIMSKGKIFPARYQYIYNRFAVFKNPFLDERNLGHQLANSYYAISNGGWFGKGLGNSVQKKGFLPEAHTDFIFAITLEELGIIGGLAILGLLMFMIARIILVGVRSKKPFNSLMCIGIGTMLLIQVFINVGGITGIIPLTGITFPFLSQGGNSLLIISIAVAFVLNISADETRQKLENEYYLSLEQNQ
- protein production: failed

Sequence: LRGFVPSSVWLERGVFPPSNEEVIKLGLSPTSMVARLKRQRLADGVVMAIEMSTMPVAYLPDPQAVGTSLYAHLDATGHSVVRALQHIRAVNASGDVAQLAGIRPGEAMLLITRIGFNADNVAIELTDTYCRNDYYDFVAELKR
- protein production: not failed
